The results in this text go back to article PMC12860359, “Selection and optimization strategy for Rap1-targeting single-domain antibodies as platelet activation markers” (Research and Practice in Thrombosis and Haemostasis, 2025).

Changes are numbered by the printed parent chain.

Test [1] has as its target T1, VHH-hFcS A47.
T1 construct: VHH A47; Bivalent VHH-Fc; also called VHH-FcS A47; VHH-Fc silent A47; source: HEK293, transfected (pHLSec), serum-free medium, purified
Description: BLI; OCTET R2; VHH-hFcS (2.5 μg/mL) on protein A biosensors; Rap1B loaded with GTPγS in solution at 0.04, 0.13, 0.4, 1.2 μM; 20 mM Tris-HCl pH 7.4, 0.1% BSA, 200 mM NaCl, 2 mM EDTA, 10 mM MgCl2; 25 °C; 1:1 fit. Conditions: both partners purified. (In general: BLI is a label-free optical method that tracks binding on a fibre tip over time.)

Test [2] has as its target T2, VHH-hFcS B89.
T2 construct: as the VHH of m19 (A47); Bivalent VHH-Fc; Some immunoprecipitations name only 'VHH-Fc B89' without the kind of Fc; also called VHH-Fc B89; source: HEK293, transfected (pHLSec), serum-free medium, purified
Described as above. Conditions: both partners purified.

The target of the next test is T3, LexA-Rap1B G12V (Homo sapiens, G12V).
T3 chain: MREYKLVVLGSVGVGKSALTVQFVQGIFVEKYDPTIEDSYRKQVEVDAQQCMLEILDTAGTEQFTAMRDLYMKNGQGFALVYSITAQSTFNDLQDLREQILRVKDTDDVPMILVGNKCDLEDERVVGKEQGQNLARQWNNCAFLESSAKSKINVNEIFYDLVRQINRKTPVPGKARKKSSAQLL

The target in test [3] is T4, VHH-Fc A64 (immunoprecipitation).
T4 construct: VHH A64; source: HEK293, transfected; 2 μg used
Description: co-IP; immunoprecipitation: VHH-Fc (1-2 μg) on Protein A/G magnetic beads incubated overnight at 4 °C with human platelet lysates (~200 μg protein) loaded with GTPγS or from platelets stimulated with TRAP or ADP; Rap1 western blot. Conditions: one partner purified.

The target of test [4] is T2, VHH-hFcS B89. Described as above. The note with it: one partner purified.
Test [5] addresses T1, VHH-hFcS A47. Description: ELISA; VHH-FcS (1.25 μg/mL) captured on goat antihuman Fc (Fab')2-coated plates; human platelet lysates (6 × 10^6 platelets/well) loaded with GTPγS, or PRP before and after stimulation with TRAP or ADP; detection with anti-Rap1 monoclonal (Abcam) or polyclonal (Merck) antibody. Conditions: one partner purified.
In a further test the target is T5, VHH-hFcS B14.
T5 construct: as the VHH of m19 (A47); Bivalent VHH-Fc; also called VHH-Fc B14; source: HEK293, transfected (pHLSec), serum-free medium, purified
Described as above. The note with it: one partner purified.

B1: MBP-HA Rap1B WT (natural protein, human, UniProt P61224-1 1-184, looked up)
chain: T3 chain with V12G
notes: loaded with GTPγS or GDP before the assays; this is the only recombinant wild-type Rap1B it describes; also called human Rap1B; recombinant Rap1B; source: E. coli BL21DE3, purified (amylose resin); not shown: MBP, N-terminal, kept; HA, N-terminal, kept
As a reminder, the Kd is the constant that tells how readily two partners part at equilibrium. Read a low Kd as higher affinity. As usually defined, the koff is the first-order rate constant of dissociation. Low readings indicate a long-lived complex, high ones a short-lived complex. By kon is commonly meant the second-order rate constant of association. Higher therefore signals fast association. Take B1: the Kd with VHH-hFcS A47 [1] stood at 17.2 nM. In the test with VHH-hFcS B89 [2], the affinity, expressed as Kd, was 4.4 nM; the koff was found to be 0.000513 s⁻¹; the kon came out at 166000 M⁻¹ s⁻¹.

B2: A141 (VHH)
VHH: EVQLQASGGGFVQPGGSLRLSCAASGATSKLSAMGWFRQAPGKEREFVSAISAQNDFWTYYADSVKGRFTISRDNSKNTVYLQMNSLRAEDTATYYCAHHFPSTAKSYWGQGTQVTVSS
For B2, in the test with LexA-Rap1B G12V, the binding result is “binds”.

B3: A145 (VHH)
VHH: EVQLQASGGGFVQPGGSLRLSCAASGATWKHEIMGWFRQAPGKEREFVSAISSQPGLWDYYADSVKGRFTISRDNSKNTVYLQMNSLRAEDTATYYCATPGQRMIEYWGQGTQVTVSS
As for B3, the binding result with LexA-Rap1B G12V is on record as “binds”.

B4: Rap1 of human platelets (natural protein, human (endogenous in platelets), UniProt P61224 1-184, looked up)
chain: MREYKLVVLGSGGVGKSALTVQFVQGIFVEKYDPTIEDSYRKQVEVDAQQCMLEILDTAGTEQFTAMRDLYMKNGQGFALVYSITAQSTFNDLQDLREQILRVKDTDDVPMILVGNKCDLEDERVVGKEQGQNLARQWNNCAFLESSAKSKINVNEIFYDLVRQINRKTPVPGKARKKSSC
notes: also called active Rap1; source: endogenous, human platelet lysate
Turning to B4, the binding result (in test [3]; with VHH-hFcS B89 [4]; in the test with VHH-hFcS A47 [5]; with VHH-hFcS B14) was “binds” in each case.
